Test system: Escherichia coli TOP10
Test: shrunken log2 fold change of peptide-encoding DNA abundance (4.5 h post-induction vs induction); higher = less antimicrobial activity (less host growth inhibition)
Details: time post-induction: 4.5 h; library: site-saturation at positions 5, 18, 19, 20
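Note: peptides expressed intracellularly from a pBAD plasmid library in pooled LB shake-flask culture, induced with 0.3% L-arabinose, DNA abundance read by NGS, three biological replicates, DESeq2 with apeglm shrinkage.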

Sequence	shrunken log2 fold change
RRIRIRPPRLPRPRPRPKKEPRP	-0.438
RRIRCRPPRLPRPRPRPKWSPRP	0.0876
RRIRNRPPRLPRPRPRPEFYPRP	-0.243
RRIRLRPPRLPRPRPRPYPGPRP	-0.251
RRIRWRPPRLPRPRPRPWPYPRP	-0.0146
RRIRDRPPRLPRPRPRPMDQPRP	0.326
RRIRTRPPRLPRPRPRPPFYPRP	-0.0308
RRIRPRPPRLPRPRPRPPNLPRP	0.0664
RRIRLRPPRLPRPRPRPNEHPRP	-0.175
RRIRGRPPRLPRPRPRPVGFPRP	0.984
RRIRFRPPRLPRPRPRPQMHPRP	-0.332
RRIRKRPPRLPRPRPRPAHHPRP	-0.00814
RRIRVRPPRLPRPRPRPALAPRP	0.484
RRIRIRPPRLPRPRPRPGIWPRP	-0.015
RRIRCRPPRLPRPRPRPIWPPRP	0.415
RRIRRRPPRLPRPRPRPECIPRP	0.282
RRIRKRPPRLPRPRPRPQMCPRP	-0.0359
RRIRDRPPRLPRPRPRPFLAPRP	0.341
RRIRRRPPRLPRPRPRPAGAPRP	0.497
RRIRWRPPRLPRPRPRPSCKPRP	-0.183
RRIRVRPPRLPRPRPRPSKVPRP	-0.693
RRIRDRPPRLPRPRPRPNWDPRP	0.0503
RRIRARPPRLPRPRPRPDCVPRP	0.813
RRIRQRPPRLPRPRPRPPFVPRP	0.0462
RRIRGRPPRLPRPRPRPKKCPRP	0.544

Sequence	shrunken log2 fold change
RRIRLRPPRLPRPRPRPSSGPRP	0.131
RRIRTRPPRLPRPRPRPYRMPRP	-0.128
RRIRSRPPRLPRPRPRPHTDPRP	-0.216
RRIRVRPPRLPRPRPRPHRDPRP	-0.198
RRIRSRPPRLPRPRPRPVLMPRP	-0.0465
RRIRERPPRLPRPRPRPPNMPRP	-0.251
RRIRMRPPRLPRPRPRPIKAPRP	0.0335
RRIRDRPPRLPRPRPRPKIVPRP	-0.198
RRIRIRPPRLPRPRPRPCVAPRP	-0.288
RRIRTRPPRLPRPRPRPGPQPRP	0.0198
RRIRTRPPRLPRPRPRPDGPPRP	0.126
RRIRYRPPRLPRPRPRPLYAPRP	-1.49
RRIRNRPPRLPRPRPRPPCCPRP	0.123
RRIRCRPPRLPRPRPRPWNTPRP	-0.575
RRIRCRPPRLPRPRPRPGFEPRP	0.244
RRIRDRPPRLPRPRPRPCPVPRP	-0.426
RRIRSRPPRLPRPRPRPCNRPRP	0.0326
RRIRFRPPRLPRPRPRPYTAPRP	-1.07
RRIRIRPPRLPRPRPRPDYDPRP	-0.00137
RRIRIRPPRLPRPRPRPCPVPRP	-0.523
RRIRLRPPRLPRPRPRPTHKPRP	0.38
RRIRPRPPRLPRPRPRPWPQPRP	0.0953
RRIRLRPPRLPRPRPRPHIEPRP	-0.0305
RRIRSRPPRLPRPRPRPECHPRP	0.411
RRIRYRPPRLPRPRPRPIRPPRP	-0.129

Sequence	shrunken log2 fold change
RRIRLRPPRLPRPRPRPVYIPRP	-0.258
RRIRARPPRLPRPRPRPRNSPRP	-0.0469
RRIRHRPPRLPRPRPRPPWHPRP	-0.0707
RRIRSRPPRLPRPRPRPAAWPRP	0.226
RRIRGRPPRLPRPRPRPHACPRP	-0.0193
RRIRVRPPRLPRPRPRPCSPPRP	-0.137
RRIRIRPPRLPRPRPRPKANPRP	-0.103
RRIRARPPRLPRPRPRPQASPRP	0.242
RRIRCRPPRLPRPRPRPGIPPRP	-0.126
RRIRYRPPRLPRPRPRPRCNPRP	-0.552
RRIRNRPPRLPRPRPRPYACPRP	-0.167
RRIRDRPPRLPRPRPRPWYLPRP	-0.11
RRIRNRPPRLPRPRPRPMTAPRP	-0.167
RRIRMRPPRLPRPRPRPHWFPRP	0.0685
RRIRSRPPRLPRPRPRPMSHPRP	-0.109
RRIRWRPPRLPRPRPRPKAMPRP	0.176
RRIRRRPPRLPRPRPRPPWEPRP	0.0894
RRIRNRPPRLPRPRPRPSNPPRP	0.0568
RRIRTRPPRLPRPRPRPTPGPRP	0.296
RRIRFRPPRLPRPRPRPYPNPRP	-0.152
RRIRERPPRLPRPRPRPMNFPRP	-0.192
RRIRARPPRLPRPRPRPCPQPRP	-0.00027
RRIRPRPPRLPRPRPRPSWAPRP	0.0666
RRIRVRPPRLPRPRPRPMGRPRP	-0.0203
RRIRCRPPRLPRPRPRPKMGPRP	0.0549

Sequence	shrunken log2 fold change
RRIRIRPPRLPRPRPRPKTNPRP	-0.334
RRIRHRPPRLPRPRPRPEFTPRP	-0.0939
RRIRWRPPRLPRPRPRPLCWPRP	0.513
RRIRTRPPRLPRPRPRPMVWPRP	0.57
RRIRNRPPRLPRPRPRPPWIPRP	-0.0807
RRIRIRPPRLPRPRPRPVYNPRP	-0.314
RRIRRRPPRLPRPRPRPMQTPRP	-0.00191
RRIRTRPPRLPRPRPRPDAEPRP	0.117
RRIRRRPPRLPRPRPRPMGDPRP	-0.251
RRIRHRPPRLPRPRPRPVNHPRP	-0.361
RRIRIRPPRLPRPRPRPHTLPRP	-0.436
RRIRERPPRLPRPRPRPQIRPRP	0.0242
RRIRYRPPRLPRPRPRPVWNPRP	-0.136
RRIRDRPPRLPRPRPRPWHVPRP	0.015
RRIRPRPPRLPRPRPRPVLSPRP	0.076
RRIRGRPPRLPRPRPRPNLDPRP	0.265
RRIRARPPRLPRPRPRPQLNPRP	-0.0125
RRIRERPPRLPRPRPRPGSPPRP	-0.0668
RRIRNRPPRLPRPRPRPPAWPRP	0.369
RRIRARPPRLPRPRPRPSPDPRP	0.553
RRIRDRPPRLPRPRPRPIGAPRP	-0.173
RRIRMRPPRLPRPRPRPKYPPRP	-0.00805
RRIRKRPPRLPRPRPRPLDMPRP	0.0395
RRIRQRPPRLPRPRPRPTCDPRP	-0.116
RRIRARPPRLPRPRPRPKTAPRP	0.0481

Sequence	shrunken log2 fold change
RRIRARPPRLPRPRPRPVGTPRP	0.441
RRIRMRPPRLPRPRPRPYHSPRP	-0.0421
RRIRCRPPRLPRPRPRPPCMPRP	-0.159
RRIRKRPPRLPRPRPRPRPEPRP	0.162
RRIRRRPPRLPRPRPRPVRNPRP	0.146
RRIRNRPPRLPRPRPRPGEWPRP	0.00667
RRIRGRPPRLPRPRPRPGIIPRP	0.0469
RRIRQRPPRLPRPRPRPDIPPRP	-0.811
RRIRGRPPRLPRPRPRPDGKPRP	0.0293
RRIRGRPPRLPRPRPRPQAVPRP	0.295
RRIRARPPRLPRPRPRPHTHPRP	-0.175
RRIRNRPPRLPRPRPRPLRYPRP	0.0165
RRIRGRPPRLPRPRPRPSDIPRP	0.399
RRIRMRPPRLPRPRPRPTQCPRP	0.00706
RRIRGRPPRLPRPRPRPDENPRP	0.987
RRIRERPPRLPRPRPRPTTFPRP	-0.367
RRIRRRPPRLPRPRPRPCIMPRP	-0.191
RRIRCRPPRLPRPRPRPVMKPRP	-0.342
RRIRKRPPRLPRPRPRPRSGPRP	0.183
RRIRDRPPRLPRPRPRPCEDPRP	-0.0105
RRIRVRPPRLPRPRPRPWFFPRP	-0.148
RRIRNRPPRLPRPRPRPKDVPRP	-0.0116
RRIRNRPPRLPRPRPRPKWNPRP	-0.319
RRIRYRPPRLPRPRPRPWNPPRP	-0.00498
RRIRFRPPRLPRPRPRPTRWPRP	0.117

Sequence	shrunken log2 fold change
RRIRQRPPRLPRPRPRPKLKPRP	-0.0236
RRIRYRPPRLPRPRPRPMIWPRP	-0.00195
RRIRRRPPRLPRPRPRPDGVPRP	0.268
RRIRMRPPRLPRPRPRPVYRPRP	-0.174
RRIRWRPPRLPRPRPRPRVNPRP	0.478
RRIRERPPRLPRPRPRPLPPPRP	0.124
RRIRARPPRLPRPRPRPWWAPRP	0.289
RRIRRRPPRLPRPRPRPCSAPRP	0.34
RRIRGRPPRLPRPRPRPFKSPRP	0.08
RRIRDRPPRLPRPRPRPESYPRP	0.0185
RRIRTRPPRLPRPRPRPWDYPRP	-0.139
RRIRMRPPRLPRPRPRPTCKPRP	2.25
RRIRWRPPRLPRPRPRPCCDPRP	0.0279
RRIRQRPPRLPRPRPRPDWEPRP	0.0238
RRIRKRPPRLPRPRPRPDNFPRP	-0.0455
RRIRIRPPRLPRPRPRPYQVPRP	-0.14
RRIRCRPPRLPRPRPRPDKNPRP	-0.369
RRIRKRPPRLPRPRPRPSHVPRP	0.164
RRIRPRPPRLPRPRPRPRFQPRP	-0.0819
RRIRNRPPRLPRPRPRPCVNPRP	-0.282
RRIRRRPPRLPRPRPRPFRPPRP	0.317
RRIRLRPPRLPRPRPRPCMTPRP	0.0964
RRIRPRPPRLPRPRPRPHRPPRP	0.0359
RRIRLRPPRLPRPRPRPASEPRP	0.159
RRIRHRPPRLPRPRPRPNIDPRP	-0.153
